From patent US20230165981A1, “[161Tb]-BASED RADIOPEPTIDES” (priority 2021, published 2023)
“And” between values parts separate entries of the source, which are not always exact repeats. Equal entries are not always repeated. Where two headings read alike, the source gives them in different places. Positions of bridges follow the written chain, without caps; N, C: chain ends. Non-standard residues stand in square brackets, D forms with d. Residues, ends and D or L forms follow the SMILES beside them. *: point of attachment. DOTA = O=C(O)CN1CCN(CC(=O)O)CCN(CC(=O)*)CCN(CC(=O)O)CC1; dPhe(4-NHCONH2) = NC(=O)Nc1ccc(C[C@@H](N)C(=O)O)cc1; Phe(4-Cl) = N[C@@H](Cc1ccc(Cl)cc1)C(=O)O

Legend:
[1] = n-octanol/PBS distribution coefficient (logD), shake-flask method; assay type: physicochemical; settings: n-octanol/PBS pH 7.4
Method: An aliquot of the radiolabeled peptide (0.5 MBq, 25 µL) was added to a mixture of 1475 µL PBS pH 7.4 and 1500 µL n-octanol. The respective tubes were vortexed for 60 sec and centrifuged for 6 min at 2500 rpm followed by the measurement of the activity concentration in a defined volume of each layer using a γ-counter (Perkin Elmer, Wallac Wizard 1480). The logD values were calculated as the logarithm of the ratio of counts per minute (cpm) measured in the n-octanol phase relative to the cpm measured in the PBS pH 7.4 phase. The experiments were performed three times with five replicates for each radiopeptide and the logD value was expressed as the average ± standard deviation (SD) of the values obtained in each experiment. […] A p value <0.05 was considered statistically significant.

[2] = system: AR42J tumors; assay: Preclinical therapy study in AR42J tumor-bearing mice; assay type: in vivo
[3] = Assessment of early side effects in therapy mice; settings: endpoint of therapy
Method: Early side effects were assessed based on the RBW of each mouse which was monitored every second day. When an endpoint was reached or at the end of the study (after 49 days), relevant organs and tissues were collected, weighed and put into relation to the brain mass and body weight of the respective mouse. This allowed comparison of organ-to-brain and organ-to-body mass weight ratios. In addition, blood plasma parameters from blood collected immediately after euthanasia were measured.
RBW, organ mass and mass ratios at the endpoint: The RBW was monitored every second day. Mice were euthanized when a predefined endpoint criterion was reached or when the study was terminated at Day 49. RBWs, organ masses, organ mass ratios (kidney-to-brain, liver-to-brain and spleen-to-brain) and organ mass to body weight ratios (kidney-to-body mass, liver-to-body mass and spleen-to-body mass) were analyzed for significance using a one-way ANOVA test with a Tukey’s multiple comparisons post-test. A p-value of <0.05 was considered as statistically significant.
Blood plasma chemistry: Immediately before euthanasia of the mice that reached the endpoint, blood was sampled from the retrobulbar vein. The values of creatinine (CRE), blood urea nitrogen (BUN), alkaline phosphatase (ALP), total bilirubin (TBIL) and albumin (ALB) were determined in the plasma after centrifugation of the blood using a dry chemistry analyzer (DRI-CHEM 4000i, FUJIFILM, Japan). The average blood plasma parameters of each group were analyzed for significance using a one-way ANOVA test with a Tukey’s multiple comparisons post-test. A p-value of <0.05 was considered as statistically significant.

[4] = system: AR42J tumor-bearing mice; assay: Biodistribution: optimum injected molar amount; settings: 2 h p.i.
[5] = in vivo; settings: female, athymic nude (CD-1 Foxn-1nu), mouse, iv, 1 nmol/mouse, total radioactivity
Method: Five-week-old female, athymic nude mice (CD-1 Foxn-⅟nu) were obtained from Charles River Laboratories (Sulzfeld, Germany). Mice were subcutaneously inoculated with AR42J tumor cells (5 × 10^6 cells in 100 µL PBS) for SPECT/CT imaging, biodistribution and therapy studies. The SPECT/CT and biodistribution studies were performed 10-14 days after tumor cell inoculation when the tumor size reached a volume of ~250 mm^3.
The mice were sacrificed at 2 h and 24 h post injection (p.i.). Selected tissues and organs were collected, weighed, and the accumulated activity was counted in a γ-counter. The decay-corrected data were listed as the percentage of the injected activity per gram of tissue mass (% IA/g). The data were analyzed for significance using a two-way ANOVA with Tukey’s multiple comparison post-tests. A p-value of <0.05 was considered statistically significant.

SMILES: C[C@@H](O)[C@@H]1NC(=O)[C@H](CCCCN)NC(=O)[C@@H](Cc2c[nH]c3ccccc23)NC(=O)[C@H](Cc2ccc(O)cc2)NC(=O)[C@@H](NC(=O)[C@@H](Cc2ccccc2)NC(=O)CN2CCN(CC(=O)O)CCN(CC(=O)O)CCN(CC(=O)O)CC2)CSSC[C@@H](C(=O)N[C@H](CO)[C@@H](C)O)NC1=O [[^177Lu]Lu-DOTATOC] [metal not drawn]
- LogD [1]: -3.1 ± 0.2
- Median survival ([2]; 2 x 10 MBq, 0.2 nmol): 19.5 days
- tumor growth delay ([2]; 2 x 10 MBq, 0.2 nmol, Day 0 and 7): 6.0 ± 4.4 days
- Time frame of euthanasia ([2]; 2 x 10 MBq, 0.2 nmol, end of study = 49 days): 12 to 22 days
- tumor doubling time ([2]; regrowth phase): 3.4 ± 0.8 days
- ALB (albumin) [3]: 24 ± 5 g/L
- ALP (alkaline phosphatase) [3]: 77 ± 8 U/L
- BUN (blood urea nitrogen) [3]: 6.3 ± 0.9 mmol/L
- CRE (plasma creatinine) [3]: <18 (n=5) µmol/L
- TBIL (total bilirubin) [3]: < 3 µmol/L and 4 ± 1 µmol/L
- Biodistribution: AR42J Tumor ([4]; 0.040 nmol/mouse): ~ 17 % IA/g
- Biodistribution: Blood ([4]; 0.040 nmol/mouse): ≤0.10 % IA/g
- Biodistribution: Heart ([4]; 0.040 nmol/mouse): ≤0.10 % IA/g
- Biodistribution: Kidneys ([4]; 0.040 nmol/mouse): 10 ± 2 % IA/g
- Biodistribution: Muscle ([4]; 0.040 nmol/mouse): ≤0.10 % IA/g
- Tu-to-adr (tumor-to-adrenals) ([4]; 0.040 nmol/mouse): 28 ± 2
- Tu-to-blood ([4]; 0.040 nmol/mouse): 213 ± 41
- Tu-to-kidney ([4]; 0.040 nmol/mouse): 1.9 ± 0.3
- Tu-to-liver ([4]; 0.040 nmol/mouse): 100 ± 8
- Tu-to-lung (tumor-to-lungs) ([4]; 0.040 nmol/mouse): 17 ± 3
- Tu-to-panc (tumor-to-pancreas) ([4]; 0.040 nmol/mouse): 9.7 ± 1.8
- Tu-to-sto (tumor-to-stomach) ([4]; 0.040 nmol/mouse): 11 ± 2
- Biodistribution: Blood ([4]; 0.20 nmol/mouse): <0.10 % IA/g
- Biodistribution: Femur ([4]; 0.20 nmol/mouse): 0.10 ± 0.01 % IA/g
- Biodistribution: Heart ([4]; 0.20 nmol/mouse): <0.10 % IA/g
- Biodistribution: Kidneys ([4]; 0.20 nmol/mouse): 10 ± 3 % IA/g
- Biodistribution: Muscle ([4]; 0.20 nmol/mouse): <0.10 % IA/g
- Tu-to-adr (tumor-to-adrenals) ([4]; 0.20 nmol/mouse): 47 ± 29
- Tu-to-blood ([4]; 0.20 nmol/mouse): 235 ± 60
- Tu-to-kidney ([4]; 0.20 nmol/mouse): 1.9 ± 0.4
- Tu-to-liver ([4]; 0.20 nmol/mouse): 118 ± 24
- Tu-to-lung (tumor-to-lungs) ([4]; 0.20 nmol/mouse): 27 ± 6
- Tu-to-panc (tumor-to-pancreas) ([4]; 0.20 nmol/mouse): 10 ± 2
- Tu-to-sto (tumor-to-stomach) ([4]; 0.20 nmol/mouse): 15 ± 4
- Biodistribution: AR42J Tumor ([4]; 1.0 nmol/mouse): 8.9 ± 1.5 % IA/g
- Biodistribution: Adrenals ([4]; 1.0 nmol/mouse): 0.28 ± 0.08 % IA/g
- Biodistribution: Blood ([4]; 1.0 nmol/mouse): <0.10 % IA/g
- Biodistribution: Femur ([4]; 1.0 nmol/mouse): <0.10 % IA/g
- Biodistribution: Heart ([4]; 1.0 nmol/mouse): <0.10 % IA/g
- Biodistribution: Intestines ([4]; 1.0 nmol/mouse): 0.20 ± 0.05 % IA/g
- Biodistribution: Kidneys ([4]; 1.0 nmol/mouse): 11 ± 1 % IA/g
- Biodistribution: Liver ([4]; 1.0 nmol/mouse): 0.26 ± 0.07 % IA/g
- Biodistribution: Lung ([4]; 1.0 nmol/mouse): 0.37 ± 0.06 % IA/g
- Biodistribution: Muscle ([4]; 1.0 nmol/mouse): <0.10 % IA/g
- Biodistribution: Pancreas ([4]; 1.0 nmol/mouse): 0.80 ± 0.13 % IA/g
- Biodistribution: Spleen ([4]; 1.0 nmol/mouse): 0.15 ± 0.03 % IA/g
- Biodistribution: Stomach ([4]; 1.0 nmol/mouse): 0.65 ± 0.11 % IA/g
- Tu-to-adr (tumor-to-adrenals) ([4]; 1.0 nmol/mouse): 29 ± 3
- Tu-to-lung (tumor-to-lungs) ([4]; 1.0 nmol/mouse): 25 ± 3
- Tu-to-panc (tumor-to-pancreas) ([4]; 1.0 nmol/mouse): 13 ± 1
- Tu-to-sto (tumor-to-stomach) ([4]; 1.0 nmol/mouse): 15 ± 5
- kidney uptake ([4]; irrespective of the applied setting (0.04-1.0 nmol)): ~ 10%

SMILES: C[C@@H](O)[C@@H]1NC(=O)[C@H](CCCCN)NC(=O)[C@@H](Cc2ccc(NC(N)=O)cc2)NC(=O)[C@H](Cc2ccc(O)cc2)NC(=O)[C@H](NC(=O)[C@H](Cc2ccc(Cl)cc2)NC(=O)CN2CCN(CC(=O)O)CCN(CC(=O)O)CCN(CC(=O)O)CC2)CSSC[C@@H](C(=O)N[C@H](Cc2ccc(O)cc2)C(N)=O)NC1=O [metal not drawn] ({DOTA}-[Phe(4-Cl)][dC]Y[dPhe(4-NHCONH2)]KTC[dY]-NH2; disulfide 2-7)
- LogD ([1]; read-out: LogD): -2.5 ± 0.1
- ALB (albumin) [3]: 23 ± 1 g/L
- ALP (alkaline phosphatase) [3]: 66 ± 5 U/L
- BUN (blood urea nitrogen) [3]: 8.2 ± 1.9 mmol/L and 8.2 ± 1.8 mmol/L
- CRE (plasma creatinine) [3]: <18 (n=5) µmol/L and 19 (n=1) µmol/L
- TBIL (total bilirubin) [3]: <3 (n=4) µmol/L and 4 ± 1 (n=2) µmol/L
- tissue uptake at 24 h ([5]; intestines): 0.14 ± 0.03 %ID/g
- tissue uptake at 2 h ([5]; kidneys): 11 ± 1 %ID/g
- Tu-to-adr (tumor-to-adrenals) ([4]; 0.040 nmol/mouse): 11 ±4
- Tu-to-blood ([4]; 0.040 nmol/mouse): 289 ± 45
- Tu-to-kidney ([4]; 0.040 nmol/mouse): 4.3 ± 1.2
- Tu-to-adr (tumor-to-adrenals) ([4]; 0.20 nmol/mouse): 34 ± 9.2
- Tu-to-blood ([4]; 0.20 nmol/mouse): 492 ± 102
- Tu-to-kidney ([4]; 0.20 nmol/mouse): 4.3 ± 0.4
- Tu-to-liver ([4]; 0.20 nmol/mouse): 90 ± 11
- Biodistribution: Blood ([4]; 1.0 nmol/mouse): ≤0.10 % IA/g
- Biodistribution: Heart ([4]; 1.0 nmol/mouse): ≤0.10 % IA/g
- Biodistribution: Muscle ([4]; 1.0 nmol/mouse): ≤0.10 % IA/g
- Tu-to-adr (tumor-to-adrenals) ([4]; 1.0 nmol/mouse): 36 ± 6
